The target of test [1] is T1, GnRH receptor of rat pituitary membranes (rat) (UniProt P30969).
T1 sequence (looked up): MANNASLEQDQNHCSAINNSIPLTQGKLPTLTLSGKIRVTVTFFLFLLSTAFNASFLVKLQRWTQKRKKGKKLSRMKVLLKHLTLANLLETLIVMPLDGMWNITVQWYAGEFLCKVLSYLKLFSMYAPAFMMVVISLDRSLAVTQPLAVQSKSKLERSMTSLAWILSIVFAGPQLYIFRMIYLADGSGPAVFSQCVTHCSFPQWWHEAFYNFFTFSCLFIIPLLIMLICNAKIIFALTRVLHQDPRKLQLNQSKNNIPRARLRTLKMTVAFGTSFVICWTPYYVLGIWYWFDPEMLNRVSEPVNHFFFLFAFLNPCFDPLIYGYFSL
The test is described as follows: radioligand displacement on rat pituitary membranes, equimolar concentrations. On the technique in general: Loss of bound radioactivity is the signal in a displacement assay; it reports binding, not function.

In test [2] the target is LH receptors on bovine granulosa cells and bovine small luteal cells (bovine) (UniProt Q28005). Nature of the test: cell-based or functional assay.

This passage reports cpm displaced relative to native GnRH and cell killing of bovine small luteal cells after 22 hr (Trypan Blue exclusion) (fold vs hecate alone) results from EP1878438A2.

UniProt Q28005, sequence (Q28005 27-701): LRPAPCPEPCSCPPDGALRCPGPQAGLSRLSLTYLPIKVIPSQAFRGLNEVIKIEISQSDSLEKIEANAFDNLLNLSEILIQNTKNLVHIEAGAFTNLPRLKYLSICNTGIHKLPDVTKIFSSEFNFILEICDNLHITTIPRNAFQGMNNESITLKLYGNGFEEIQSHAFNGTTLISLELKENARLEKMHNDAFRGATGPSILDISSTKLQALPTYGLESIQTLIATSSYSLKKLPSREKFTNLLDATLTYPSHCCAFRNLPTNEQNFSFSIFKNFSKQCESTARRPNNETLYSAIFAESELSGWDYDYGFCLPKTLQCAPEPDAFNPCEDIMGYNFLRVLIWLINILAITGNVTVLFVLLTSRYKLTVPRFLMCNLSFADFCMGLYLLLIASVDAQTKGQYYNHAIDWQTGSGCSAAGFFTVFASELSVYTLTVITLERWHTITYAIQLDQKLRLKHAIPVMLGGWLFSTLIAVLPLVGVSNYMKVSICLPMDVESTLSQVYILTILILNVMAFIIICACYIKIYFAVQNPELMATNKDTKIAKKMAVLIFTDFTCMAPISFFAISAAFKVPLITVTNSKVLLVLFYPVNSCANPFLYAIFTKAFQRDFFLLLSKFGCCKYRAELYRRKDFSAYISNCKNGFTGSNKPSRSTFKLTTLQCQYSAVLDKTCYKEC

For the substance D-Lys6GnRH (peptide), the cpm displaced relative to native GnRH in test [1] is 187%.

On to hecate-bLH conjugate (peptide), for which the cell killing of bovine small luteal cells after 22 hr (Trypan Blue exclusion) (fold vs hecate alone) in test [2] turned out to be 2.
